For this test, the target named is GST-Gag (HIV-1 Gag fused to GST, from pGEX-6P-3/Gag) (HIV-1). The test is described as follows: SPR. Background: Surface plasmon resonance follows binding to a sensor surface in real time, without labels.

From article PMC5029901 come the findings set out here.

By Kd is commonly meant a measure of binding affinity in units of concentration. A lower Kd goes with a tighter complex. A word on the koff: it is a measure of how fast the partners let go of each other. A high value points to a short-lived complex. For orientation: kon means the second-order rate constant of association.

Take “FLAG-TSG101 (Tumor Susceptibility Gene 101) (from UniProt Q99816 1-390) (natural protein)”: the Kd worked out at 55.2 nM, the koff was determined as 0.0223 s⁻¹ and the kon was found to be 924000 M⁻¹ s⁻¹.
